Sequences and labels used below:
B1: Speckle-type POZ protein (Homo sapiens), O43791 (parent)
chain: MSRVPSPPPPAEMSSGPVAESWCYTQIKVVKFSYMWTINNFSFCREEMGEVIKSSTFSSGANDKLKWCLRVNPKGLDEESKDYLSLYLLLVSCPKSEVRAKFKFSILNAKGEETKAMESQRAYRFVQGKDWGFKKFIRRDFLLDEANGLLPDDKLTLFCEVSVVQDSVNISGQNTMNMVKVPECRLADELGGLWENSRFTDCCLCVAGQEFQAHKAILAARSPVFSAMFEHEMEESKKNRVEINDVEPEVFKEMMCFIYTGKAPNLDKMADDLLAAADKYALERLKVMCEDALCSNLSVENAAEILILADLHSADQLKTQAVDFINYHASDVLETSGWKSMVVSHPHLVAEAYRSLASAQCPFLGPPRKRLKQS
partner: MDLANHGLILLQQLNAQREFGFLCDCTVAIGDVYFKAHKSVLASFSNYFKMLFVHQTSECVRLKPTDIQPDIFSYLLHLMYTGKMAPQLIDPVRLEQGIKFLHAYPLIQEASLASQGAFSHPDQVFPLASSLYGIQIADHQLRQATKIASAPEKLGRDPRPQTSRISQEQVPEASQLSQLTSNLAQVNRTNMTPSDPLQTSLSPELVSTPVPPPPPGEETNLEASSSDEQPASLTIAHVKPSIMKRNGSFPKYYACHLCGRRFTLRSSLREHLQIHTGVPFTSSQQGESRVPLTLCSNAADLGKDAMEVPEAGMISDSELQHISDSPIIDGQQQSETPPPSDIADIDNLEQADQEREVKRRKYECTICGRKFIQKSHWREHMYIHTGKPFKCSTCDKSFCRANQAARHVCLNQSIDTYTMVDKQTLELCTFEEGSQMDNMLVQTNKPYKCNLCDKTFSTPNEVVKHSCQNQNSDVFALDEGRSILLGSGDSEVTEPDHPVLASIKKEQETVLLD
B2: Speckle-type POZ protein (Homo sapiens), O43791 (parent)
chain: B1 chain
partner: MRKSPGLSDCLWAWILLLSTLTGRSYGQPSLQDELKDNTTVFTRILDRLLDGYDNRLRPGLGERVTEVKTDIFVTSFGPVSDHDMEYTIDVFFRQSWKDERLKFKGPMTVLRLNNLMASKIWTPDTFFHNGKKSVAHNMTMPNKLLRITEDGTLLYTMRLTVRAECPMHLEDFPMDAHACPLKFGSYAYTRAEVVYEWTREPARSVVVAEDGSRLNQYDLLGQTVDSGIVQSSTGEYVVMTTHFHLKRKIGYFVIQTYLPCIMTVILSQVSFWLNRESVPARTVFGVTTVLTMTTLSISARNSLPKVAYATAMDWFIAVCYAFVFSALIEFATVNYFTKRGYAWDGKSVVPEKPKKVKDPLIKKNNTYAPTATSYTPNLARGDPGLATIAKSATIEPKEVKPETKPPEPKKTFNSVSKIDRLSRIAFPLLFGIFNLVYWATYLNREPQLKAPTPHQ
B3: Speckle-type POZ protein (Homo sapiens), O43791 (parent)
chain: B1 chain
partner: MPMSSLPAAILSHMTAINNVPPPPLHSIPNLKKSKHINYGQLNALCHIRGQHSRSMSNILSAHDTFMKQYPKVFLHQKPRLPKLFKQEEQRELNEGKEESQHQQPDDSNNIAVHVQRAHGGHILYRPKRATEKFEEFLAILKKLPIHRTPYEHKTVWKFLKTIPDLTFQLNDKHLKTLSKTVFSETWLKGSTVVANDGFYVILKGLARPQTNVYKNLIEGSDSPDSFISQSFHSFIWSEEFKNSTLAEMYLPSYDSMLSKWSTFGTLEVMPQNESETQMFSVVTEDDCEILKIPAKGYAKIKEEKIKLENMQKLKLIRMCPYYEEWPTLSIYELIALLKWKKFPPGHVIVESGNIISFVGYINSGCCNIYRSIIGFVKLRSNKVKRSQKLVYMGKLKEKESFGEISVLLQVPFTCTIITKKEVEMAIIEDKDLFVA
B4: Speckle-type POZ protein (Homo sapiens), O43791 (parent)
chain: B1 chain
partner: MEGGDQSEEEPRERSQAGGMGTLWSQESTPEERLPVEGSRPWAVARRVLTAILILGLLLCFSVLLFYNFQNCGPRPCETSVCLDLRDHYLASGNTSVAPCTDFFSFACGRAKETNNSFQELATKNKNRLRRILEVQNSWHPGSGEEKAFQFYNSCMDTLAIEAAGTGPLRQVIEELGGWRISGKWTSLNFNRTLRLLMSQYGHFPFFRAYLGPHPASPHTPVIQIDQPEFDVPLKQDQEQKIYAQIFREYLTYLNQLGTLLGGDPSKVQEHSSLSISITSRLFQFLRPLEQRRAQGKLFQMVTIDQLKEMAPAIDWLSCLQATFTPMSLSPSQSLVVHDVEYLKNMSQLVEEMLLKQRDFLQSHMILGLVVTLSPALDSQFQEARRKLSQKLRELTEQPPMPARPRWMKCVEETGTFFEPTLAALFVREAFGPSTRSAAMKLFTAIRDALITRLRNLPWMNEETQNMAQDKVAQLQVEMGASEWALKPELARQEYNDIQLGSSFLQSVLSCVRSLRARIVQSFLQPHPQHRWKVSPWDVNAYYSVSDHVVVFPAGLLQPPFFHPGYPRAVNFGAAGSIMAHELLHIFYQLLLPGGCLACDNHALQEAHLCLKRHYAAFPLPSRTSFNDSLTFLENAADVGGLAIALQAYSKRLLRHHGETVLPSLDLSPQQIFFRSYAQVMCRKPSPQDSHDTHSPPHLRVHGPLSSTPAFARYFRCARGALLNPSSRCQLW
B5: Speckle-type POZ protein (Homo sapiens), O43791 (parent)
chain: B1 chain
partner: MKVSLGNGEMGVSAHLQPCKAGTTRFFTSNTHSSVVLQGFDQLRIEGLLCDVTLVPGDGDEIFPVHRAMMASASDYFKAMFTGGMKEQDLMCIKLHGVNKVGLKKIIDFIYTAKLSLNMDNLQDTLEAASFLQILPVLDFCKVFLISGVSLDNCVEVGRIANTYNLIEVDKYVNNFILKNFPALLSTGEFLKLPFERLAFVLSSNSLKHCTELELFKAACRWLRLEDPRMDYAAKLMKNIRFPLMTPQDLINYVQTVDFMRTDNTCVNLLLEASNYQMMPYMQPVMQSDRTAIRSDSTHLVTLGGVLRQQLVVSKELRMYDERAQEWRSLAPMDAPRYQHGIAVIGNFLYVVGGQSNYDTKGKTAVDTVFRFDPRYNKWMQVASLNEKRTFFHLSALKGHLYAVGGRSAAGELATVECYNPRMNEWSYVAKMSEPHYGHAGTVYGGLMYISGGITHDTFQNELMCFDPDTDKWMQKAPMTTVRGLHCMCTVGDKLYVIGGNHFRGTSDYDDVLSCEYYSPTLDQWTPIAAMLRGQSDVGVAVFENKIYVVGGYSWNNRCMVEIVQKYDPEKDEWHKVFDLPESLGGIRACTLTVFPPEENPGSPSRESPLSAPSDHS
B6: Speckle-type POZ protein (Homo sapiens), O43791 (parent)
chain: B1 chain
partner: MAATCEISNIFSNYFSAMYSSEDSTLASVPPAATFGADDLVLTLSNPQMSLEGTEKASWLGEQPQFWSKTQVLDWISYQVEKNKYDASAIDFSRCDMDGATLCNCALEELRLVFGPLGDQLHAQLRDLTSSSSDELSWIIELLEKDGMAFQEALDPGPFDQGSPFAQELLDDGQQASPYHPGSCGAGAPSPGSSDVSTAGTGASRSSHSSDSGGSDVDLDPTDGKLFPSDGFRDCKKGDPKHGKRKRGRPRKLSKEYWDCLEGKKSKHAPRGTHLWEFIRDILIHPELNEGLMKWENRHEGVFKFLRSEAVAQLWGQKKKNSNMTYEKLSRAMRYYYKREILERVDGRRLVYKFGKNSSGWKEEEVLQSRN
B7: Speckle-type POZ protein (Homo sapiens), O43791 (parent)
chain: B1 chain
partner: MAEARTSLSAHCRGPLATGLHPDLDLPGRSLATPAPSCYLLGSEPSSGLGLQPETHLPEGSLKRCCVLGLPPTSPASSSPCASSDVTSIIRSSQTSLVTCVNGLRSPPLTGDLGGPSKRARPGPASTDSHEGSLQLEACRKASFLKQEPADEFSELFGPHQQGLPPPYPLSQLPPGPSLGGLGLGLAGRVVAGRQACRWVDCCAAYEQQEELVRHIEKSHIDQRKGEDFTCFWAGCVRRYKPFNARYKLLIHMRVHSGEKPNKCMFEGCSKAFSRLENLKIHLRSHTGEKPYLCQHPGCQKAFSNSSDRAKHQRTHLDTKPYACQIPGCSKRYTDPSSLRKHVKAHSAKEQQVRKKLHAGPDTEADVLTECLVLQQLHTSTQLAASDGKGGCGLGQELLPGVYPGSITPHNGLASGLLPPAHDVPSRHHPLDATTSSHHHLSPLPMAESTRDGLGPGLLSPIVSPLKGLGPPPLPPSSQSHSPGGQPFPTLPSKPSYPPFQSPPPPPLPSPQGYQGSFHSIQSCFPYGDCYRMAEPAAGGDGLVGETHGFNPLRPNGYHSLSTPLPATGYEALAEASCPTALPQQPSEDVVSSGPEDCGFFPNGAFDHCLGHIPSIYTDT
B8: Speckle-type POZ protein (Homo sapiens), O43791 (parent)
chain: B1 chain
partner: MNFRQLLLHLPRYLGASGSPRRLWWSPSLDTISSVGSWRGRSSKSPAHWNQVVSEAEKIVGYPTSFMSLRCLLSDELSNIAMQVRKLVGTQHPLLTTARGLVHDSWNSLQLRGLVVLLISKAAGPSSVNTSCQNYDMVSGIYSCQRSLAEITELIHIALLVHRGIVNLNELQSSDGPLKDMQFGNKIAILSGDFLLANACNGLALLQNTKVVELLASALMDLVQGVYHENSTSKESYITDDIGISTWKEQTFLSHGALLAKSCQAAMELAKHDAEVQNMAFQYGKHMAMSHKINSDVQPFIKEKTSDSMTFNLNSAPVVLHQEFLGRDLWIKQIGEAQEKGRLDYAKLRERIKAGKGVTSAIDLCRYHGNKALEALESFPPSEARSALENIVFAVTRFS

The first assay covers variants of B1. The note with it: with zbtb2_human ZBTB2, Q8N680.
Turning to F133V, the “effect of a mutation on the interaction” value is given as “causing an interaction”.

A further assay covers variants of B1. To be noted: with zbtb2_human ZBTB2, Q8N680. This is another data set of the same source.
Take F133L: the “effect of a mutation on the interaction” value is “with no effect”.

In another assay the parent is B1. The note with it: with zbtb2_human ZBTB2, Q8N680. The source holds these as a separate data set.
F133L: the “effect of a mutation on the interaction” value is reported as “causing an interaction”.

The next assay covers variants of B2. To be noted: with gbra1_human GABRA1, P14867.
As for Y87C, the “effect of a mutation on the interaction” value is “with no effect”.

Variants of B3 are the subject of a further assay. The note with it: with cnbd1_human CNBD1, Q8NA66.
As to Y87C, the “effect of a mutation on the interaction” value is listed as “with no effect”.

The variants in a further assay derive from B3. The note with it: with cnbd1_human CNBD1, Q8NA66. This is another data set of the same source.
On to F133L, for which the “effect of a mutation on the interaction” value is recorded as “with no effect”.

The variants in a further assay derive from B3. To be noted: with cnbd1_human CNBD1, Q8NA66. This is another data set of the same source.
Consider F133V, for which the “effect of a mutation on the interaction” value is “with no effect”.

In the next assay the parent is B4. To be noted: with kell_human KEL.
As for Y87C, the “effect of a mutation on the interaction” value is reported as “with no effect”.

A further assay covers variants of B4. The note with it: with kell_human KEL. The source holds these as a separate data set.
On to F133V, for which the “effect of a mutation on the interaction” value is recorded as “with no effect”.

In another assay the parent is B4. The note with it: with kell_human KEL. The source holds these as a separate data set.
For F133L, the “effect of a mutation on the interaction” value is “with no effect”.

Another assay covers variants of B5. To be noted: with klhl9_human KLHL9, Q9P2J3.
For Y87C, the “effect of a mutation on the interaction” value is “with no effect”.

The variants in a further assay derive from B5. To be noted: with klhl9_human KLHL9, Q9P2J3. This is another data set of the same source.
Consider F133L, for which the “effect of a mutation on the interaction” value was “with no effect”.

Variants of B6 are the subject of the next assay. To be noted: with elf3_human ELF3, P78545.
For the variant Y87C, the “effect of a mutation on the interaction” value is “with no effect”.

In the next assay the parent is B7. To be noted: with glis1_human GLIS1, Q8NBF1.
For the variant Y87C, the “effect of a mutation on the interaction” value is on record as “with no effect”.

A further assay covers variants of B7. The note with it: with glis1_human GLIS1, Q8NBF1. This is another data set of the same source.
F133L: the “effect of a mutation on the interaction” value is reported as “with no effect”.

The variants in another assay derive from B8. The note with it: with dlp1_human PDSS2, Q86YH6.
For Y87C, the “effect of a mutation on the interaction” value is “with no effect”.

A further assay covers variants of B8. The note with it: with dlp1_human PDSS2, Q86YH6. The source holds these as a separate data set.
Take F133L: the “effect of a mutation on the interaction” value is listed as “with no effect”.

These data come from IntAct's records for PubMed 35512704.
